Measurements from IntAct's records for PubMed 16316992.

Target: magi3_human MAGI3 (UniProt Q5TCQ9)
Sequence (Q5TCQ9 whole entry): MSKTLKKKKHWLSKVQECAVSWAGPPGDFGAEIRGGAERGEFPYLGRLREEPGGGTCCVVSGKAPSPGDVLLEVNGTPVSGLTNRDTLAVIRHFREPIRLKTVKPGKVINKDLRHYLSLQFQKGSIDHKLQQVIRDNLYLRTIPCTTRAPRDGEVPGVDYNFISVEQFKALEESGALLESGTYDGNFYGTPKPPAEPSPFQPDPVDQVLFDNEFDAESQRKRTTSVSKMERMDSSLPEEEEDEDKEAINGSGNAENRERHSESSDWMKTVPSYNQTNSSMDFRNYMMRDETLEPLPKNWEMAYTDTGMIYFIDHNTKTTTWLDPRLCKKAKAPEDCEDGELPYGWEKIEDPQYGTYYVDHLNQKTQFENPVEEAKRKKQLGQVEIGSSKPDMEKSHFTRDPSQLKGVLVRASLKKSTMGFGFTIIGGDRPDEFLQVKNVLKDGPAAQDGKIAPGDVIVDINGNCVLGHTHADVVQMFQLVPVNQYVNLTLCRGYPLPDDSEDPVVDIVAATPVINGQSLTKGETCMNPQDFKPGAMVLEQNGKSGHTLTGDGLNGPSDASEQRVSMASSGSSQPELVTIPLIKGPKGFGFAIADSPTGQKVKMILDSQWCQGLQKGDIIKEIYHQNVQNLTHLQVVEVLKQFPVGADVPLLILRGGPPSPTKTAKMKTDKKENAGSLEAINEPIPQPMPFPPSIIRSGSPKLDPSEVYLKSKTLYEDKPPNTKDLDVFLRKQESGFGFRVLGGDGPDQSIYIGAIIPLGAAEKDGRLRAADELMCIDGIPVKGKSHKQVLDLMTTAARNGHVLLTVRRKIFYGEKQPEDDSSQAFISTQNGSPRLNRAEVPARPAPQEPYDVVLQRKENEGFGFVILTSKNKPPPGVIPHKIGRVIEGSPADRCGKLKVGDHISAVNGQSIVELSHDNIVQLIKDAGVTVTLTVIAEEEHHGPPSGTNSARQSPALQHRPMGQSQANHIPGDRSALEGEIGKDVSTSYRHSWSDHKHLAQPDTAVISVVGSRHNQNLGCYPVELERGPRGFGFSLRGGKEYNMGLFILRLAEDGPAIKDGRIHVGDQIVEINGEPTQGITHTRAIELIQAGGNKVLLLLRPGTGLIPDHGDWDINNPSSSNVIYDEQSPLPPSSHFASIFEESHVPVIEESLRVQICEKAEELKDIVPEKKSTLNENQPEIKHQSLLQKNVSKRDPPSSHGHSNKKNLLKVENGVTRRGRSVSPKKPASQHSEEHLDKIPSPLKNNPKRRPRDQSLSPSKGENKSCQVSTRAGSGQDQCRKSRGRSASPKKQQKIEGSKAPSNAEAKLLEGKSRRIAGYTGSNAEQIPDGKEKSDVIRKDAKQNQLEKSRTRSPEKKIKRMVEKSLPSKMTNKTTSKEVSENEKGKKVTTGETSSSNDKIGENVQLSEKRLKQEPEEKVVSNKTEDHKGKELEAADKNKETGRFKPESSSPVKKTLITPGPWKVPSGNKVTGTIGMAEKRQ

Chain of Beta-1 adrenergic receptor (Homo sapiens), P08588 S475A (P08588 whole entry S475A): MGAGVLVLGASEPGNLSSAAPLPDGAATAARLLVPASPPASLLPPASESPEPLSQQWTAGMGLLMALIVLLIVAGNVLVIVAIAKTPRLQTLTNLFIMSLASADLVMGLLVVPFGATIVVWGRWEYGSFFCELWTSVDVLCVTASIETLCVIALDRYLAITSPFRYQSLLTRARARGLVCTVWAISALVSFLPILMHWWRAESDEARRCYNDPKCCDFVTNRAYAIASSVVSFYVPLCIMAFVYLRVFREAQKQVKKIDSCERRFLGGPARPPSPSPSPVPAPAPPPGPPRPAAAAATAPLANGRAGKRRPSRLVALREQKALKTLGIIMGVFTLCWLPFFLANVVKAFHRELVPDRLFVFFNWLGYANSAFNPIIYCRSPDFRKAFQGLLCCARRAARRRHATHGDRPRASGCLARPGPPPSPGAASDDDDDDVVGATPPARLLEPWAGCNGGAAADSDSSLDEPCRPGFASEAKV
Chain of Beta-1 adrenergic receptor (Homo sapiens), P08588 E474A (P08588 whole entry E474A): as the sequence (P08588 whole entry S475A) above, with E474A, A475S counted along it
Chain of Beta-1 adrenergic receptor (Homo sapiens), P08588 V477I (P08588 whole entry V477I): as the sequence (P08588 whole entry S475A) above, with A475S, V477I counted along it
Chain of Beta-1 adrenergic receptor (Homo sapiens), P08588 K476R (P08588 whole entry K476R): as the sequence (P08588 whole entry S475A) above, with A475S, K476R counted along it
Chain of Beta-1 adrenergic receptor (Homo sapiens), P08588 E474T (P08588 whole entry E474T): as the sequence (P08588 whole entry S475A) above, with E474T, A475S counted along it
Chain of Beta-1 adrenergic receptor (Homo sapiens), P08588 V477M (P08588 whole entry V477M): as the sequence (P08588 whole entry S475A) above, with A475S, V477M counted along it
Chain of Beta-1 adrenergic receptor (Homo sapiens), P08588 V477A (P08588 whole entry V477A): as the sequence (P08588 whole entry S475A) above, with A475S, V477A counted along it
Chain of Beta-1 adrenergic receptor (Homo sapiens), P08588 V477L (P08588 whole entry V477L): as the sequence (P08588 whole entry S475A) above, with A475S, V477L counted along it

Row | Substance | effect of a mutation on the interaction
1 | Beta-1 adrenergic receptor (Homo sapiens), P08588 V477A | decreasing interaction
2 | Beta-1 adrenergic receptor (Homo sapiens), P08588 S475A | decreasing interaction
3 | Beta-1 adrenergic receptor (Homo sapiens), P08588 E474T | decreasing interaction
4 | Beta-1 adrenergic receptor (Homo sapiens), P08588 E474A | decreasing interaction
5 | Beta-1 adrenergic receptor (Homo sapiens), P08588 K476R | decreasing interaction

Target: magi3_human MAGI3 (UniProt Q5TCQ9)
Remark: another data set of the same source

Row | Substance | effect of a mutation on the interaction
6 | Beta-1 adrenergic receptor (Homo sapiens), P08588 V477L | decreasing interaction
7 | Beta-1 adrenergic receptor (Homo sapiens), P08588 V477M | decreasing interaction
8 | Beta-1 adrenergic receptor (Homo sapiens), P08588 V477I | decreasing interaction
